Results as given in IntAct's records for PubMed 16499958.

Experiments:
rabx5_human RABGEF1 [1] = target: rabx5_human RABGEF1 (UniProt Q9UJ41)
rabx5_human RABGEF1 [2] = target: rabx5_human RABGEF1 (UniProt Q9UJ41); remark: listed apart in the source

Substance: Polyubiquitin-B (Homo sapiens) (from UniProt P0CG47) D58A
- effect of a mutation on the interaction (rabx5_human RABGEF1 [1]): decreasing interaction

Substance: Polyubiquitin-B (Homo sapiens) (from UniProt P0CG47) I44A
- effect of a mutation on the interaction (rabx5_human RABGEF1 [2]): decreasing interaction
